# Measured values taken from patent publication US20230212319A1, “NOVEL ANTIGEN BINDING DOMAINS AND SYNTHETIC ANTIGEN RECEPTORS INCORPORATING THE SAME” (University of Southern California, priority 2020, published 2023).
# B1: 22096 (protein)
# chain: MALPVTALLLPLALLLHAARPQLQLQESGPGLVKPSETLSLTCTVSGDSISSGDYYWGWIRQPPGKGLEWIGHIYYSGVTYYNPSLKSRVTISVDTSRNQFSLKLSSVTAADTAVYYCTREDSSNWRSRGQGTLVTVSSLEGQPKANPTVTLFPPSSEELQANKATLVCLISDFYPGAVTVAWKADGSPVKAGVETTKPSKQSNNKYAASSYLSLTPEQWKSHRSYSCQVTHEGSTVEKTVAPTECSPIKTDVITMDPKDNCSKDANDTLLLQLTNTSAYYMYLLLLLKSVVYFAIITCCLLRRTAFCCNGEKSRAKRSGSGATNFSLLKQAGDVEENPGPTSMDWIWRILFLVGAATGAHSFEVQLLESGGGLIQPGGSLRLSCAASGFTFSSHAMTWVRQAPGKGLEWVSAISGSGDYTHYADSVKGRFTISRDNSKNTVYLQMNSLRAEDSAVYYCAKDEDGGSLLGHRGQGTLVTVSSTRASTKGPSVFPLAPSSKSTSGGTAALGCLVKDYFPEPVTVSWNSGALTSGVHTFPAVLQSSGLYSLSSVVTVPSSSLGTQTYICNVNHKPSNTKVDKRVEPKSCEVKTDSTDHVKPKETENTKQPSKSCHKPKAIVHTEKVNMMSLTVLGLRMLFAKTVAVNFLLTAKLFFLRAKRSGSGVKQTLNFDLLKLAGDVESNPGPSRGHMTEYKPTVRLATRDDVPRAVRTLAAAFADYPATRHTVDPDRHIERVTELQELFLTRVGLDIGKVWVADDGAAVAVWTTPESVEAGAVFAEIGPRMAELSGSRLAAQQQMEGLLAPHRPKEPAWFLATVGVSPDHQGKGLGSAVVLPGVEAAERAGVPAFLETSAPRNLPFYERLGFTVTADVEVPEGPRTWCMTRKPGA
# B2: 22020 (protein)
# chain: MALPVTALLLPLALLLHAARPQLQLQESGPGLVKPSETLSLTCTVSGDSISSGDYYWGWIRQPPGKGLEWIGHIYYSGVTYYNPSLKSRVTISVDTSRNQFSLKLSSVTAADTAVYYCTREDSSNWRSRGQGTLVTVSSLDSGGGGSFEQLQLQESGPGLVKPSETLSLTCTVSGGSISSGDYYWGWIRQPPGKGLEWIGHIYYSGATYYNPSLKSRVTISVDTSRNQFSLKLSSVTAADTAVYYCTRDDSSNWRSRGQGTLVTVSSTRIQNPDPAVYQLRDSKSSDKSVCLFTDFDSQTNVSQSKDSDVYITDKCVLDMRSMDFKSNSAVAWSNKSDFACANAFNNSIIPEDTFFPSPESSCDVKLVEKSFETDTNLNFQNLSVIGFRILLLKVAGFNLLMTLRLWSSRAKRSGSGVKQTLNFDLLKLAGDVESNPGPSRGHMTEYKPTVRLATRDDVPRAVRTLAAAFADYPATRHTVDPDRHIERVTELQELFLTRVGLDIGKVWVADDGAAVAVWTTPESVEAGAVFAEIGPRMAELSGSRLAAQQQMEGLLAPHRPKEPAWFLATVGVSPDHQGKGLGSAVVLPGVEAAERAGVPAFLETSAPRNLPFYERLGFTVTADVEVPEGPRTWCMTRKPGA
# B3: 22162 (protein)
# chain: MALPVTALLLPLALLLHAARPDIQMTQSPSSLSASVGDRVTITCKASDHINNWLAWYQQKPGQAPKLLIYGATTLETGVPSRFSGSGSGTDYTLTISSLQPEDFATYYCQQSWNTPWTFGQGTKLEIKRLEDLKNVFPPEVAVFEPSEAEISHTQKATLVCLATGFYPDHVELSWWVNGKEVHSGVCTDPQPLKEQPALNDSRYCLSSRLRVSATFWQNPRNHFRCQVQFYGLSENDEWTQDRAKPVTQIVSAEAWGRADCGFTSESYQQGVLSATILYEILLGKATLYAVLVSALVLMAMVKRKDSRGRAKRSGSGATNFSLLKQAGDVEENPGPTSATMDWIWRILFLVGAATGAHSGPEVQLLESGGGLVQPGGSLRLSCAASGSIASIHAMGWFRQAPGKEREFVAVITWSGGITYYADSVKGRFTISRDNSKNTVYLQMNSLRPEDTALYYCAGDKHQSSWYDYWGQGTLVTVSSGSGGGGSGGGGSGGGGSFEQVQLQQPGAELVKPGASVKMSCKASGYAFSSYWINWMKQKPGQGLEWIGQIYPGDGDTNYNGKFKGRATLTADTSSSTAYMQLSSLTSEDSAVYFCARSITTVVGCAMDYWGQGTSVTVSSTRIQNPDPAVYQLRDSKSSDKSVCLFTDFDSQTNVSQSKDSDVYITDKCVLDMRSMDFKSNSAVAWSNKSDFACANAFNNSIIPEDTFFPSPESSCDVKLVEKSFETDTNLNFQNLSVIGFRILLLKVAGFNLLMTLRLWSSRAKRSGSGVKQTLNFDLLKLAGDVESNPGPSRGHMTEYKPTVRLATRDDVPRAVRTLAAAFADYPATRHTVDPDRHIERVTELQELFLTRVGLDIGKVWVADDGAAVAVWTTPESVEAGAVFAEIGPRMAELSGSRLAAQQQMEGLLAPHRPKEPAWFLATVGVSPDHQGKGLGSAVVLPGVEAAERAGVPAFLETSAPRNLPFYERLGFTVTADVEVPEGPRTWCMTRKPGA
# B4: 21985 (protein)
# chain: MALPVTALLLPLALLLHAARPQLQLQESGPGLVKPSETLSLTCTVSGDSISSGDYYWGWIRQPPGKGLEWIGHIYYSGVTYYNPSLKSRVTISVDTSRNQFSLKLSSVTAADTAVYYCTREDSSNWRSRGQGTLVTVSSLEDLKNVFPPEVAVFEPSEAEISHTQKATLVCLATGFYPDHVELSWWVNGKEVHSGVCTDPQPLKEQPALNDSRYCLSSRLRVSATFWQNPRNHFRCQVQFYGLSENDEWTQDRAKPVTQIVSAEAWGRADCGFTSESYQQGVLSATILYEILLGKATLYAVLVSALVLMAMVKRKDSRGRAKRSGSGATNFSLLKQAGDVEENPGPTSMDWIWRILFLVGAATGAHSFEVQLLESGGGLIQPGGSLRLSCAASGFTFSSHAMTWVRQAPGKGLEWVSAISGSGDYTHYADSVKGRFTISRDNSKNTVYLQMNSLRAEDSAVYYCAKDEDGGSLLGHRGQGTLVTVSSTRIQNPDPAVYQLRDSKSSDKSVCLFTDFDSQTNVSQSKDSDVYITDKCVLDMRSMDFKSNSAVAWSNKSDFACANAFNNSIIPEDTFFPSPESSCDVKLVEKSFETDTNLNFQNLSVIGFRILLLKVAGFNLLMTLRLWSSRAKRSGSGVKQTLNFDLLKLAGDVESNPGPSRGHMTEYKPTVRLATRDDVPRAVRTLAAAFADYPATRHTVDPDRHIERVTELQELFLTRVGLDIGKVWVADDGAAVAVWTTPESVEAGAVFAEIGPRMAELSGSRLAAQQQMEGLLAPHRPKEPAWFLATVGVSPDHQGKGLGSAVVLPGVEAAERAGVPAFLETSAPRNLPFYERLGFTVTADVEVPEGPRTWCMTRKPGA
# System: RAJI cells
# Assay: JNG assay, co-culture with RAJI cells
# Assay type: cell-based
# Conditions: JNG cells expressing construct, co-culture with Raji
# Outline: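 Jurkat NFAT-GFP (JNG) cells stably transduced with SARs by lentivirus, with drug selection where the construct carried a resistance gene, then co-cultured with target cells at E:T ~1:2 for ~4–18 h. % GFP-positive cells measured by FACS against parental JNG; +/- to 5+ correspond to ~5–50% GFP-positive.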
row,Molecule,NFAT-GFP ASSAY: Raji
1,B1,"2+ (refer to approximately 5%, 10%, 20%, 30%, 40% and 50% GFP positive cells)"
2,B2,"+/- (refer to approximately 5%, 10%, 20%, 30%, 40% and 50% GFP positive cells)"

# System: Nalm6 cells
# Assay: JNG assay, co-culture with Nalm6 cells
# Assay type: cell-based
# Conditions: co-culture with Nalm6
# Description: Cellular supernatant is collected and assayed for the induction of cytokines (e.g., IL2).
# JNG (Jurkat cells expressing EGFP under an NFAT promoter) were infected with lentiviral vectors encoding different single chain and multi-chain SARs by spinfection in the presence of 8 µg/ml of Polybrene® (Sigma, Catalog no. H9268). The Jurkat-NFAT-GFP cells are engineered in such a way that the IL-2 promoter, which carries NFAT binding sites, is cloned upstream of the GFP gene. These cells have been used to study signaling via TCR and CAR. The different SARs were stably expressed in Jurkat NFAT-GFP cells by lentiviral mediated gene transfer, followed by selection with puromycin or blasticidin. No drug selection was used in case the construct lacked an antibiotic resistance gene. The SAR-expressing Jurkat-NFAT-GFP cells were cocultured with the target cells at E:T ratio of approximately 1:2 for approximately 4 hours to 18 hours. When the interaction between SIRs and their target antigen results in activation of the NFAT pathway, GFP expression is induced. […] GFP expression was monitored by FACS analysis. The Jurkat-NFAT-GFP (parental) cells were used as control. The structure of different constructs can be determined based on their names. For example, the construct CD8SP-CD19-hu-mROO5-1-vL-[hTCRa-C SDVP]-F-F2A-Spe-IgHSP-Apa-CD20-vHH-2HCD25-G4S-CDl9-hu-mROO5-1-vH-Mlu-[hTCRb-KACIAH]-F-P2A-PAC has the following modules from 5′ to 3′ direction: a CD8 signal peptide (CD8SP), the CD19 targeting hu-mROO5-1 vL fragment (CD19-hu-mROO5-1), Xho1 cloning site, human TCRa constant chain containing CSDVP mutations (hTCRa-CSDVP), Furine cleavage site (F), F2A ribosomal skip sequence (F2A), SpeI site, human IgH signal peptide (IgHSP), Apa I restriction enzyme site, camelid CD20-2HCD25-VHH module targeting CD20, BamHI restriction enzyme site, Glycinex4-serine linker (G4S), BstI restriction enzyme site, CD19-hu-mROO5-1-vH fragment targeting CD19, Mlu I restriction enzyme site, human TCRb constant chain containing KACIAH mutations ([hTCRb-KACIAH]), Furine cleavage site (F), P2A ribosomal skip sequence and Puromycin resistance gene (PAC). The sequence of the other constructs in the table can be similarly determined from their names and by referring to the different Tables of this disclosure that provide the names and SEQ ID NO of the different modules. Alternatively, the composition and modular architecture of the different SAR constructs can be determined from their sequences by bioinformatics tools, including using nucleic acid and amino acids homology searches. A SAR is considered positive in the assay in case the SAR expressing Jurkat-NFAT-GFP cells show greater % GFP positive cells when cultured with the target cell line as compared to parental Jurkat-NFAT-GFP cells. The signs +/-, +, 2+ etc. after the name of the cell lines indicate the relative degree of positivity on the Jurkat-NFAT-GFP assay as measured by the % GFP positive cells after culture of the SAR expressing Jurkat-NFAT-GFP cells with that cell line above the % GFP cells observed in parental Jurkat NFAT-GFP cells serving as controls. In general, the number +/-, +, 2+, 3+, 4+, 5+ refer to approximately 5%, 10%, 20%, 30%, 40% and 50% GFP positive cells. The % of GFP induction in the above assay is dependent not only the relative strength of the SAR but also, among other factors, on the relative level of expression of the SAR in the JNG cells and the relative level of expression of the target antigen in the target cell line. To control for the difference in gene transduction efficiency of the different SAR constructs, the experiment was conducted with JNG cells transduced with SAR constructs co-expressing a drug resistance gene (e.g., puromycin or PAC) followed by drug selection to generate a stable population of SAR-expressing cells. […]
row,Molecule,NFAT-GFP ASSAY: Nalm6
1,B3,"5+ (refer to approximately 5%, 10%, 20%, 30%, 40% and 50% GFP positive cells)"
2,B4,"+/- (refer to approximately 5%, 10%, 20%, 30%, 40% and 50% GFP positive cells)"
3,B1,"+ (refer to approximately 5%, 10%, 20%, 30%, 40% and 50% GFP positive cells)"
4,B2,"+/- (refer to approximately 5%, 10%, 20%, 30%, 40% and 50% GFP positive cells)"
